Consider 2 compounds from paper doi:10.1101/2025.11.13.688252, “Cap1 forms a cyclic tetra-adenylate-induced membrane pore during the type III-A CRISPR-Cas immune response” (bioRxiv, 2025).

Test [1] concerns the target T1, Cap1 (CRISPR-associated pore 1) (Parafilimonas terrae, UniProt A0A1I5TJE5, Q118A).
T1 construct: gene SAMN05444277_102160; CARFL domain (residues 85–220), His6-tagged
Description: ITC with purified CARFL Q118A domain. It is filed as binding.

Test [2] addresses T2, Cap1 (CRISPR-associated pore 1) (Parafilimonas terrae, UniProt A0A1I5TJE5).
T2 construct: gene SAMN05444277_102160; ITC: CARFL domain (residues 85–220), His6-tagged; cryo-EM: full-length Cap1-His6 in GDN, homotetramer
T2 sequence (A0A1I5TJE5 85-220): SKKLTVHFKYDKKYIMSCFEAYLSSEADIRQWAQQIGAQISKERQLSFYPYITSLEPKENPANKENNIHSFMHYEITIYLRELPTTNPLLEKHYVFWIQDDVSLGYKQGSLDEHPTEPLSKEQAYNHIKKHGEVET
The test can be described thus: ITC with purified CARFL domain; cryo-EM structure of cA4-bound full-length tetramer ([…] Å). The class given is binding.

Test [3] deals with Cap1 (CRISPR-associated pore 1), full-length, C-terminal His6 tag (Parafilimonas terrae). Description: cryo-EM structure; apo-Cap1 in GDN, 200 μM protein, 0.5 mM FOM detergent added for grids; map at 3.4 Å, C1 symmetry.
Test [4] has the same target. Description: cryo-EM structure; Cap1 in GDN, 150 μM (as monomer) with 800 μM cA4, 30 min on ice; two classes: 2.9 Å (C4; DUF4579 not visible) and 3.6 Å (C4; DUF4579 visible, TM1 not resolved).
The target is the same in test [5]. The test can be described thus: SEC-MALS; conjugate SEC-MALS (protein conjugate method) of apo-Cap1 without cOA ligand; Superdex200 10/300 increase; 25 mM Hepes pH 8, 200 mM NaCl, 2 mM β-mercaptoethanol, 5 % glycerol, 375 μM GDN. (In general: SEC sorts molecules by how far they enter the pores of the column.)

For orientation: Kd means the constant that tells how readily two partners part at equilibrium. A lower Kd goes with a tighter complex. On to `Nc1ncnc2c1ncn2[C@@H]1O[C@@H]2COP(=O)(O)O[C@H]3[C@@H](O)[C@H](n4cnc5c(N)ncnc54)O[C@@H]3COP(=O)(O)O[C@H]3[C@@H](O)[C@H](n4cnc5c(N)ncnc54)O[C@@H]3COP(=O)(O)O[C@H]3[C@@H](O)[C@H](n4cnc5c(N)ncnc54)O[C@@H]3COP(=O)(O)O[C@H]2[C@H]1O` [cA4, cyclic tetra-adenylate], for which the figures for the dissociation constant (Kd) in test [1] and in test [2] were roughly 1200 nM and roughly 33 nM, respectively.

As usually defined, the stoichiometry N is the number of molecules, sites or subunits per partner or assembly. Consider “Cap1 (CRISPR-associated pore 1), full-length, C-terminal His6 tag (natural protein)”, for which the stoichiometry N in test [3], in test [4] and in test [5] was 4 each time.
